# Laboratory results from publication PMC12554751 (Frontiers in Immunology, 2025).
# Target: T1, Aβ aggregates in human Alzheimer's disease brain (Homo sapiens (endogenous, Alzheimer's …, UniProt P05067))
# T1 construct: Aβ peptide of the amyloid precursor protein, aggregated in patient brain; also called Alzheimer's brain lysates; Aβ plaques; source: endogenous, human Alzheimer's disease brain (hippocampus homogenates; paraffin-embedded frontal cortex sections)
# Assay: immunostaining of cells or tissue; immunohistochemistry of paraffin-embedded frontal cortex of Alzheimer's disease patients with moderate cerebral amyloid angiopathy; Digoxigenin-tagged antibody applied 1 h; HRP polymer, DAB
# Settings: one partner purified
binder,measurement,value
"97A34 tagged with Digoxigenin (antibody, V domains shown, heavy chain constant region; light chain constant region; Detected with a Human-on-Human HRP-Polymer kit through mouse anti-Digoxigenin; I surmise the human IgG1 kappa form) VH: EVQLVESGGGLVQPGGSLRLSCAASGYNIKATYIHWVRQAPGKGLEWVARIYPASGATRYADSVKGRFTISADTSKNTAYLQMNSLRAEDTAVYYCARDGYDGSYFVGYDYNDFYDYWGQGTLVTVSS VL: DIQMTQSPSSLSASVGDRVTITCRASQNVAYAVTWYQQKPGKAPKLLIYSASFLYSGVPSRFSGSRSGTDFTLTISSLQPEDFATYYCQQHSTYPPTFGQGTKVEIK",binding result,binds
